Measurements from US20230183753A1 (INTELLIA THERAPEUTICS, published 2023).

Target: WT1 peptide … (VLD peptide) pulsed on OCI-AML3 target cells
Experiment: cell-based or functional assay

B1: WT1 targeting transgenic T cell receptor (tgTCR) (TCR, V domains shown)
V domain 1: DAGVIQSPRHEVTEMGQEVTLRCKPISGHDYLFWYRQTMMRGLELLIYFNNNVPIDDSGMPEDRFSAKMPNASFSTLKIQPSEPRDSAVYFCASRKTGGYSNQPQHFGDGTRLSILE
V domain 2: SQQPVQSPQAVILREGEDAVINCSSSKALYSVHWYRQKHGEAPVFLMILLKGGEQKGHEKISASFNEKKQQSSLYLTASQLSYSGTYFCGTAWINDYKLSFGAGTTVTVRA
Q: How did the “Cumulative Fold Change in T cell number after stimulation 1 with OCI-AML3 cells pulsed with 500 nM VLD peptide, EP + AAV engineered T cells” value turn out when B1 was run?
A: The value was 7.9 fold.

Q: What about the “Cumulative Fold Change in T cell number after stimulation 1 with OCI-AML3 cells pulsed with 500 nM VLD peptide, LNP + AAV engineered T cells” value of the same binder?
A: The value was 7.2 fold.

Q: What about the “Cumulative Fold Change in T cell number after stimulation 2 with OCI-AML3 cells pulsed with 500 nM VLD peptide, EP + AAV engineered T cells” value of the same binder?
A: Its value is 19 fold.

Q: What about the “Cumulative Fold Change in T cell number after stimulation 2 with OCI-AML3 cells pulsed with 500 nM VLD peptide, LNP + AAV engineered T cells” value of the same binder?
A: Its value is 34.2 fold.

Q: What about the “Cumulative Fold Change in T cell number after stimulation 3 with OCI-AML3 cells pulsed with 500 nM VLD peptide, EP + AAV engineered T cells” value of the same binder?
A: Its value is 27.1 fold.

Q: What about the “Cumulative Fold Change in T cell number after stimulation 3 with OCI-AML3 cells pulsed with 500 nM VLD peptide, LNP + AAV engineered T cells” value of the same binder?
A: Its value is 120 fold.
